Data as given in the supplement of paper PMC7125110.
± gives the standard error. This sample holds only a part of the variants without activity.

B1: glmS ribozyme (parent)
chain: AUAAAAGCGCCAGAACUACAGAAAUGUAGUUGACGAGGAGGAGGUUUAUCGAAUUUUCGGCGGAUGCCUCCAAA

Key:
Conditions in all cases: with glucosamine-6-phosphate
glucosamine-6-phosphate [1] = variants of: B1; test: self-cleavage kobs at 40 uM GlcN6P; higher = faster cleavage; RNA array
Summary of the method: (§1)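 Barcoded glmS ribozyme variants on sequenced MiSeq chips were transcribed in situ by E. coli RNA polymerase and tracked through a hybridised Cy3 probe at 37 °C. Glucosamine-6-phosphate (40 μM to 10 mM) in HEPES/KCl/Mg(OAc)2 buffer was flowed in, and tiles were imaged over ~14 h. Signals were normalised to baseline and to non-cleaving reference variants; per-tile medians were fit to one- or two-exponential decays to give kobs. kcat and KM came from weighted Michaelis–Menten fits across concentrations.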

glucosamine-6-phosphate [2] = variants of: B1; test: self-cleavage kobs at 640 uM GlcN6P; higher = faster cleavage; RNA array
Summary of the method: as §1

glucosamine-6-phosphate [3] = variants of: B1; test: self-cleavage kobs at 2500 uM GlcN6P; higher = faster cleavage; RNA array
Summary of the method: as §1

glucosamine-6-phosphate [4] = variants of: B1; test: self-cleavage kobs at 10000 uM GlcN6P; higher = faster cleavage; RNA array
Summary of the method: as §1

glucosamine-6-phosphate [5] = variants of: B1; test: self-cleavage kobs at 160 uM GlcN6P; higher = faster cleavage; RNA array
Summary of the method: as §1

| Variant | self-cleavage kobs at 40 uM GlcN6P (glucosamine-6-phosphate [1]) [s⁻¹] | self-cleavage kobs at 640 uM GlcN6P (glucosamine-6-phosphate [2]) [s⁻¹] | self-cleavage kobs at 2500 uM GlcN6P (glucosamine-6-phosphate [3]) [s⁻¹] | self-cleavage kobs at 10000 uM GlcN6P (glucosamine-6-phosphate [4]) [s⁻¹] | self-cleavage kobs at 160 uM GlcN6P (glucosamine-6-phosphate [5]) [s⁻¹] |
| --- | --- | --- | --- | --- | --- |
| G13C G37A C50U G59C | < 1e-05 | < 1e-05 | < 1e-05 |  |  |
| A12U C16U G62A | < 1e-05 |  |  |  |  |
| A14G G62U | < 1e-05 |  | < 1e-05 | < 1e-05 |  |
| A14G A33G G59U | < 1e-05 |  |  |  |  |
| A14U G62A | < 1e-05 | < 1e-05 | < 1e-05 | < 1e-05 |  |
| A14C C68G U69A | < 1e-05 |  |  |  |  |
| A12G G35U C50U | < 1e-05 |  |  |  |  |
| A15G C67U | 0.000329 ± 5.2e-05 | 0.00169 ± 0.00028 | 0.00538 ± 0.0014 | 0.00828 ± 0.0017 | 0.000674 ± 0.00013 |
| A14G G41A | 0.000282 ± 3.2e-05 | 0.00125 ± 0.00022 | 0.00232 ± 0.00052 | 0.00645 ± 0.0016 | 0.000481 ± 7.9e-05 |
| A14C G29A C61G | < 1e-05 |  |  | < 1e-05 |  |
| G13C U49G | < 1e-05 | < 1e-05 |  |  | < 1e-05 |
| G13A G37C | < 1e-05 | < 1e-05 | < 1e-05 | < 1e-05 | < 1e-05 |
| A12G U57A | < 1e-05 |  |  | 4.27e-05 ± 9.1e-06 |  |
| A12U G13U G43A | < 1e-05 |  |  | < 1e-05 |  |
| A12U G32U A53G | < 1e-05 |  | 0.000144 ± 3.6e-05 | 0.000231 ± 6.4e-05 |  |
| G13C U46G | < 1e-05 | < 1e-05 |  |  | < 1e-05 |
| G13U G43C | < 1e-05 | < 1e-05 | < 1e-05 | < 1e-05 | < 1e-05 |
| A14U U46G G63A U65A C70G C71G | 4.47e-05 ± 2e-05 |  |  |  |  |
| A12U C34G G40C C50A | < 1e-05 | < 1e-05 | < 1e-05 |  | < 1e-05 |
| A12C U49A | < 1e-05 |  |  |  | < 1e-05 |
| A14G A15G | 0.00218 ± 0.00029 | 0.0134 ± 0.0029 | 0.0102 ± 0.0027 | 0.109 ± 0.035 | 0.0049 ± 0.0015 |
